In patent US20120135461A1, “PRODUCTION OF GLYCOPROTEINS WITH REDUCED O-GLYCOSYLATION COMPRISING THE USE OF AN ALPHA-1,2-MANNOSIDASE” (priority 2010, published 2012):
“Also recorded” adds a separate entry of the source.

B1: Aspergillus saitoi: A. saitoi α-1,2-mannosidase, GenBank BAA08634, SEQ ID NO: 12 (protein, listed as Aspergillus saitoi)
chain: YPHFGSSQPVLHSSSDTTQSRADAIKAAFSHAWDGYLQYAFPHDELHPVSNGYGDSRNGWGASAVDALSTAVIMRNATIVNQILDHVGKIDYSKTNTTVSLFETTIRYLGGMLSGYDLLKGPVSDLVQNSSKIDVLLTQSKNLADVLKFAFDTPSGVPYNNLNITSGGNDGAKTNGLAVTGTLALEWTRLSDLTGDTTYADLSQKAESYLLNPQPKSAEPFPGLVGSNINISNGQFTDAQVSWNGGDDSYYEYLIKMYVYDPKRFGLYKDRWVAAAQSTMQHLASHPSSRPDLTFLASYNNGTLGLSSQHLTCFDGGSFLLGGTVLNRTDFINFGLDLVSGCHDTYNSTLTGIGPESFSWDTSDIPSSQQSLYEKAGFYITSGAYILRPEVIESFYYAWRVTGQETYRDWIWSAFSAVNDYCRTSSGFSGLTDVNAANGGSRYDNQESFLFAEVMKYSYMAFAEDAAWQVQPGSGNQFVFNTEAHPVRVSST
B2: Chaetomiun globosum: C. globosum α-1,2-mannosidase, GenBank XP_001227052, SEQ ID NO: 16 (protein, listed as Chaetomium globosum)
chain: LPRLEDGGRPGAGREDSFWSKVPLHYPPDSIRPLPTGLPVQYPPIQTTTFPAEEDQAARGRRVQRQKAVRDVFAKCWASYRKLAWGADELTPVSGGRKDPFGGWSATLVDSLDTLWIMDMKTEFDEAVAAADGINFTHTAVDRVNVFETNIRYLGGFLAAFDLSGDKRLLGKATEVGDMLYKAFDTPSHMPITRWDMRAAIKGAKQVASEGLIAEVGTLSMEFTRLSMLTGDPKWFDLAQRITDDMAAQQDSTAVPGLWPLKVNGQKRIFNSGPDFTLGAMADSAYEYLPKMSAMMGGQLPMYQTMYEKAMDAATKHNLFRPMTPTNEDILIAGDVHARENGMEFEARGQHLTCFLGGLMALGGRLYGREKDVIAGRKLTDGCVWTYKAFPQGIMPESFVTVSCPAGDACEWDEGVWKKEVLRKANKDTDGPESNAEAEVIIKKQRLPQGFTAVFDRAYLLRPEAIESVFVLYRVTGKVELLEAAWDMFTAIDKATSTDLANSAIRDVTSTDKPEAKDSMESFWMAETLKYFYLIFSDPELINLNEYVLNTEAHPFRRLLPSP
B3: Aspergillus oryzae: A. oryzae α-1,2-mannosidase, GenBank BAE57653, SEQ ID NO: 14 (protein, listed as Aspergillus oryzae)
chain: YPQFKFEQRVARSNSSESRANAVKEAFVHAWDGYMQYAYPHDELHPISNGVGDSRNGWGASAVDALSTAVIMGNETIVNQILDHIATIDYSKTDDQVSLFETTIRYLGGMLSGYDLLKGPASNLVKDQAKVKTLLDQSQNLADVLKFAFDTPSGIPYNNINITSHGNDGATTNGLAVTGTLVLEWTRLSDLTGDTEYAQLSQKAEDYLLNPSPKSAEPFEGLVGSHINISNGAFADGQVSWNGGDDSFYEYLIKMYVYDPKRFSTYGDRWVKAAESSIKHLASHPEKRPDLTFLASYNDGQYGLSSQHLTCFDGGSFLLGGTVLDRDDFIQFGLDLVKGCHETYNQTLTGIGPESFGWDPKNVPSDQKELYERAGFYISSGAYILRPEVIESFYYAWRITGQEIYREWVWNAFVNINKYCRTDSGFAGLTNVNAANGGGRYDNQESFLFAEVLKYVYLTFAPDNEWQVQRGKGNKFVYNTEAHPVRVAA
B4: Penicillium citrinum: Penicillium citrinum α-1,2-mannosidase, GenBank BAA08275, SEQ ID NO: 8 (protein, listed as Penicillium citrinum)
chain: HPYGETEAVLRSEPKSNQAKADAVKEAFQHAWNGYMKYAFPHDELTPVSNGHADSRNGWGASAVDALSTAVIMGKADVVNAILEHVADIDFSKTSDTVSLFETTIRYLAGMLSGYDLLQGPAKNLVDNQDLIDGLLDQSRNLADVLKFAFDTPSGVPYNNINITSHGNDGATTNGLAVTGTLVLEWTRLSDLTGDEEYAKLSQKAESYLLKPQPSSSEPFPGLVGSSININDGQFADSRVSWNGGDDSFYEYLIKMYVYDPKRFETYKDRWVLAAESTIKHLKSHPKSRPDLTFLSSYSNRNYDLSSQHLTCFDGGSFLLGGTVLDRQDFIDFGLELVDGCEATYNSTLTKIGPDSWGWDPKKVPSDQKEFYEKAGFYISSGSYVLRPEVIESFYYAHRVTGKEIYRDWVWNAFVAINSTCRTDSGFAAVSDVNKANGGSKYDNQESFLFAEVMKYSYLAHSEDAAWQVQKGGKNTFVYNTEAHPISVARN

Each molecule was assayed on O-glycosylated α-Her2 heavy chain (Hc) (assay: not given).
Assay type: cell-based, Pichia pastoris

Molecule | α-Her2 Hc migration on Western blot relative to non-transformed control
B1 | faster relative to the non-transformed control but not as fast
B2 | faster relative to the non-transformed control but not as fast
B3 | migration is increased; also recorded: faster relative to the non-transformed control but not as fast

What follows are molecules tested on O-glycans of α-Her2 (assay: O-mannose chain length analysis by HPAEC-PAD of O-glycans released from α-Her2 from fermented MNS1 strains).
Assay type: cell-based, Pichia pastoris

Molecule | O-Man1 (%) | effect on percentage of O-Man1 / O-mannose chain length relative to no MNS1 control
B1 | 86% | reduced O-mannose chain length, but to a lesser extent
B2 | 89% | reduced O-mannose chain length, but to a lesser extent
B3 | 89% | reduced O-mannose chain length, but to a lesser extent
B4 | 83% | reduced O-mannose chain length, but to a lesser extent
